From patent publication US20210380703A1 (RIGEL PHARMACEUTICALS, published 2021) come the findings set out here.

B1: 372_H11 (antibody, V domains shown)
VH: EVQLLESGGGLVQPGGSLRLSCAASGFTFSSYGMHWVRQAPGKGLEWVAGINYNGGYTSYADSVKGRFTISRDNSKNTLYLQMNSLRAEDTAVYYCARGATWHDTHLDYWGQGTLVTVSS
VL: DIQMTQSPSSLSASVGDRVTITCRASQSILSYVNWYQQKPGKAPKLLIYAATSRASGVPSRFSGSGSGTDFTLTISSLQPEDFATYYCQQSYENPLTFGGGTKVEIK
notes: VH/VL only
B2: 365_C01 (antibody, V domains shown)
VH: B1 VH with S30D, H35N, A49S, G50S, G55S, T58K, G99S, T101N
VL: B1 VL with L30V, V33L, L47V, A51V, N94S
notes: VH/VL only
B3: 365_B06 (antibody, V domains shown)
VH: B1 VH with S30D, A49S, G50N, T58K, G99S, T101N, H106A
VL: B1 VL with S31T, A51T, R54L, E93D, N94L
notes: VH/VL only
B4: 365_B01 (antibody, V domains shown)
VH: B1 VH with S30D, G50S, G55S, G99S, T101N, H106A
VL: B1 VL with L30S, L47V, N94S
notes: VH/VL only
B5: 373_F07 (antibody, V domains shown)
VH: B1 VH with G33S, H35N, A49S, G55S, T58K
VL: B1 VL with V33L, R54L, N94T
notes: VH/VL only
B6: 374_D09 (antibody, V domains shown)
VH: B1 VH with S30D, H35N, G50N, T58K, S59G
VL: B1 VL with L30I, R54L, E93D, N94T
notes: VH/VL only
B7: 373_D06 (antibody, V domains shown)
VH: B1 VH with G33S, H35N
VL: B1 VL with L30V, S31T, V33L, E93D, N94T
notes: VH/VL only
B8: 376_F06 (antibody, V domains shown)
VH: B1 VH with H35N, A49S, S59G, T101N
VL: B1 VL with S31T, L47V, N94T
notes: VH/VL only
B9: 373_G02 (antibody, V domains shown)
VH: B1 VH with G33S, H35N, A49S
VL: B1 VL with L30I, S31T, V33L, E93S, N94S
notes: VH/VL only
B10: 376_H11 (antibody, V domains shown)
VH: B1 VH with S30D, G33S, H35N, A49S, G50N, S59G, T101N, H106A
VL: B1 VL with L30S, S31R, V33L, A51V, R54L, N94S
notes: VH/VL only
B11: 375_H08 (antibody, V domains shown)
VH: B1 VH with G33S, H35N, A49S
VL: B1 VL with S31T, V33L, R54L, E93D, N94S
notes: VH/VL only
B12: 376_G05 (antibody, V domains shown)
VH: B1 VH with G33S, H35N, T101N, H106A
VL: B1 VL with L30I, L47V, N94S
notes: VH/VL only
B13: 374_D04 (antibody, V domains shown)
VH: B1 VH with G33S, H35N
VL: B1 VL with V33L, L47V, A55H, E93D, N94T
notes: VH/VL only
B14: 376_G10 (antibody, V domains shown)
VH: B1 VH with S30D, H35N, T101N, H106A
VL: B1 VL with N94S
notes: VH/VL only
B15: 373_A06 (antibody, V domains shown)
VH: B1 VH with G33S, H35N, A49S, T58K
VL: not shown
notes: VH/VL only
B16: 376_A05 (antibody, V domains shown)
VH: B1 VH with G33S, H35N, G55S, T58K, S59G
VL: B1 VL with S31T, V33L, E93N, N94T
notes: VH/VL only
B17: 376_H04 (antibody, V domains shown)
VH: B1 VH with G33S, H35N, T58K, S59G, T101N, H106A
VL: B1 VL with S31T, L47V, E93D, N94L
notes: VH/VL only
B18: 376_H01 (antibody, V domains shown)
VH: B1 VH with S31D, G33S, H35N, T58K, S59G, T101N, H106A
VL: B1 VL with S31T, V33L, E93S, N94T
notes: VH/VL only
B19: 374_A05 (antibody, V domains shown)
VH: B1 VH with S31D, H35N, G50N, T58K, S59G
VL: B1 VL with L30V, S31R, V33L, L47V, R54L, N94L
notes: VH/VL only
B20: 375_A03 (antibody, V domains shown)
VH: B1 VH with S30D, G33S, H35N
VL: B1 VL with S31T, V33L, A55H, E93D
notes: VH/VL only
B21: 375_F10 (antibody, V domains shown)
VH: B1 VH with G33S, H35N, A49S, S59G
VL: B1 VL with S31T, V33L, L47V, E93D, N94T
notes: VH/VL only
B22: 376_A02 (antibody, V domains shown)
VH: B1 VH with G33S, H35N, T58K
VL: B1 VL with V33L, E93D, N94L
notes: VH/VL only
B23: 375_C01 (antibody, V domains shown)
VH: B1 VH with H35N, A49S, G50S, T58K, S59G
VL: not shown
notes: VH/VL only
B24: 376_G06 (antibody, V domains shown)
VH: B1 VH with H35N, S59G, T101N
VL: B1 VL with L30V, L47V, E93N, N94S
notes: VH/VL only
B25: 376_A07 (antibody, V domains shown)
VH: B1 VH with G33S, H35N, A49S, T58K
VL: B1 VL with S31T, V33L, E93D, N94S
notes: VH/VL only
B26: 374_G05 (antibody, V domains shown)
VH: B1 VH with G33S, H35N, A49S, G50N, G55S, T58K, S59G
VL: B1 VL with L30I, V33L, E93D, N94L
notes: VH/VL only
B27: 374_C10 (antibody, V domains shown)
VH: B1 VH with G33S, H35N, A49S, G50S, T58K, S59G
VL: B1 VL with L30V, S31T, V33L, R54L, E93N, N94T
notes: VH/VL only
B28: 374_A04 (antibody, V domains shown)
VH: B1 VH with G33S, H35N
VL: B1 VL with S31T, V33L, L47V, E93D, N94T
notes: VH/VL only
B29: 374_H05 (antibody, V domains shown)
VH: B1 VH with G33S, H35N
VL: B1 VL with L47V, E93D
notes: VH/VL only
B30: 375_C11 (antibody, V domains shown)
VH: B1 VH with G33S, H35N, A49S, G50S
VL: B1 VL with A55H, E93D, N94T
notes: VH/VL only
B31: 373_B09 (antibody, V domains shown)
VH: B1 VH with S30D, G33S, H35N, A49S, T58K
VL: B1 VL with V33L, L47V, R54L, N94T
notes: VH/VL only

Changes are numbered by the printed parent chain.
Also: test concentration or dose not given here.

T1 sequence (P27037 20-135 limits assumed): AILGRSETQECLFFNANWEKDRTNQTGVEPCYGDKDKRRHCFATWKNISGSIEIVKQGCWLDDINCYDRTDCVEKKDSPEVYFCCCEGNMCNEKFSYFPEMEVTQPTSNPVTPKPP

The first assay concerns the target T1, Human ACVR2A (human, UniProt P27037 20-135, limits assumed).
T1 construct: also called activin receptor, type II A
As to the kind of experiment: ELISA. Put shortly: (§1)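 Binding signal was read by ELISA after ACVR2A-specific monoclonal antibodies were tested against human ACVR2A and mouse ACVR2A, with human Fc as the negative control.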
On to B1, for which the optical density stood at 2.62 OD.

B2 had an optical density of 2.87 OD.

Regarding B3, the optical density was determined as 2.25 OD.

B4: the optical density amounted to 2.39 OD.

Molecule B5 yielded an optical density of 3.61 OD.

As to B6, the optical density was 3.61 OD.

As to B7, the optical density is 3.63 OD.

Molecule B8 displayed an optical density of 3.52 OD.

For B9, the optical density was 3.59 OD.

As to B10, the optical density amounted to 3.29 OD.

On to B11, for which the optical density was determined as 3.31 OD.

As to B12, the optical density was determined as 3.75 OD.

On to B13, for which the optical density is 3.63 OD.

Molecule B14 registered an optical density of 3.54 OD.

As to B15, the optical density is 3.64 OD.

As for B16, the optical density was 3.65 OD.

The molecule B17 showed an optical density of 3.31 OD.

Consider B18, for which the optical density worked out at 3.11 OD.

For B19, the optical density amounted to 3.6 OD.

B20: the optical density is 3.62 OD.

Consider B21, for which the optical density amounted to 3.69 OD.

Take B22: the optical density worked out at 3.72 OD.

B23: the optical density worked out at 2.96 OD.

In turn, B24 came in with an optical density of 3.42 OD.

In turn, B25 yielded an optical density of 3.7 OD.

In the case of B26, the optical density worked out at 3.66 OD.

The molecule B27 registered an optical density of 3.57 OD.

The molecule B28 displayed an optical density of 3.65 OD.

In turn, B29 returned an optical density of 3.31 OD.

For B30, the optical density is 3.59 OD.

In turn, B31 gave an optical density of 3.6 OD.

For a further assay, the target named is Mouse ACVR2A (mouse, UniProt P27038 20-135, limits assumed). Description: ELISA. Put shortly: as §1
Chain of Mouse ACVR2A (P27038 20-135 limits assumed): as the sequence (P27037 20-135 limits assumed) above, with K20R, V73I counted along it
On the technique in general: In an ELISA, binding on a coated surface is turned into a signal by an enzyme label.
B1 registered an optical density of 2.86 OD.

The molecule B2 registered an optical density of 3.02 OD.

In turn, B3 yielded an optical density of 2.42 OD.

The molecule B4 showed an optical density of 2.65 OD.

For the molecule B5, the optical density worked out at 3.62 OD.

Consider B6, for which the optical density was determined as 3.65 OD.

In turn, B7 came in with an optical density of 3.57 OD.

For the molecule B8, the optical density is 3.65 OD.

Molecule B9 gave an optical density of 3.56 OD.

As to B10, the optical density came out at 3.31 OD.

Molecule B11 returned an optical density of 3.28 OD.

As to B12, the optical density is 3.77 OD.

The molecule B13 showed an optical density of 3.65 OD.

Molecule B14 gave an optical density of 3.52 OD.

B15 registered an optical density of 3.62 OD.

As for B16, the optical density turned out to be 3.64 OD.

As to B17, the optical density was 3.34 OD.

Consider B18, for which the optical density turned out to be 3.31 OD.

The molecule B19 yielded an optical density of 3.6 OD.

Turning to B20, the optical density came out at 3.62 OD.

Regarding B21, the optical density is 3.77 OD.

B22 had an optical density of 3.63 OD.

Consider B23, for which the optical density amounted to 3.27 OD.

The molecule B24 returned an optical density of 3.58 OD.

Take B25: the optical density turned out to be 3.72 OD.

Regarding B26, the optical density is 3.67 OD.

For B27, the optical density is 3.67 OD.

For the molecule B28, the optical density is 3.68 OD.

As to B29, the optical density stood at 3.3 OD.

B30 had an optical density of 3.61 OD.

Turning to B31, the optical density was 3.62 OD.

The target of a further assay is T2, Goat anti-Human Kappa.
T2 construct: Positive control; also called biotinylated goat anti-human kappa light chain
Description: ELISA; positive control. Put shortly: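 mAb binding by ELISA; antigens: hu ACVR2A, mu ACVR2A; pos ctrl biotinylated goat anti-hu kappa LC; neg ctrl hu Fc.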
Molecule B1 yielded an optical density of 3.65 OD.

Consider B2, for which the optical density was found to be 3.63 OD.

For B3, the optical density worked out at 3.28 OD.

In turn, B4 gave an optical density of 3.49 OD.

As for B5, the optical density is 3.13 OD.

Take B6: the optical density is 3.1 OD.

B7 displayed an optical density of 3.21 OD.

Regarding B8, the optical density stood at 3.47 OD.

For the molecule B9, the optical density was determined as 3.22 OD.

In the case of B10, the optical density amounted to 3.43 OD.

Take B11: the optical density is 3.32 OD.

Take B12: the optical density is 3.49 OD.

Turning to B13, the optical density is 3.05 OD.

B14 registered an optical density of 3.54 OD.

B15 came in with an optical density of 3.07 OD.

For the molecule B16, the optical density is 3.18 OD.

Regarding B17, the optical density is 3.51 OD.

B18 showed an optical density of 3.28 OD.

The molecule B19 displayed an optical density of 2.92 OD.

Molecule B20 registered an optical density of 3.09 OD.

As to B21, the optical density worked out at 3.29 OD.

In turn, B22 returned an optical density of 3.19 OD.

For B23, the optical density is 3.14 OD.

With B24, the optical density was determined as 3.49 OD.

Molecule B25 yielded an optical density of 3.19 OD.

For the molecule B26, the optical density is 3 OD.

On to B27, for which the optical density is 3.08 OD.

As for B28, the optical density was found to be 2.99 OD.

As to B29, the optical density came out at 3.04 OD.

B30: the optical density was found to be 3.26 OD.

B31 gave an optical density of 3.24 OD.
